Test results published in article PMC4838878 (2016).

T1: Olf domain of mouse Latrophilin3 (Lphn3^Olf) (mouse, UniProt Q80TS3-3 199-495)
T1 chain: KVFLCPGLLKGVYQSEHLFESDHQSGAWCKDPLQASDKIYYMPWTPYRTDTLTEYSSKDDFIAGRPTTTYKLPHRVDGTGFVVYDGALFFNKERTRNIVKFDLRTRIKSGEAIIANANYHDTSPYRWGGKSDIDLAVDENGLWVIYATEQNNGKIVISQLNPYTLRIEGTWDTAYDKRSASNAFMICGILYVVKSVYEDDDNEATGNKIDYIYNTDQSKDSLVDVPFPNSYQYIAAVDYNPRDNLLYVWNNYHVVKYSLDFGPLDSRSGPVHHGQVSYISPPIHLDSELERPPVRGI

B1: FLRT2^LRR+Lphn3^Lec–Olf (mixed in a 1:2 molar ratio) (complex)
chain 1: ACPSVCRCDRNFVYCNERSLTSVPLGIPEGVTVLYLHNNQINNAGFPAELHNVQSVHTVYLYGNQLDEFPMNLPKNVRVLHLQENNIQTISRAALAQLLKLEELHLDDNSISTVGVEDGAFREAISLKLLFLSKNHLSSVPVGLPVDLQELRVDENRIAVISDMAFQNLTSLERLIVDGNLLTNKGIAEGTFSHLTKLKEFSIVRNSLSHPPPDLPGTHLIRLYLQDNQINHIPLTAFANLRKLERLDISNNQLRMLTQGVFDHLSNLKQLTARNNPWFCDCSIKWVTEWLKYIPSSLNVRGFMCQGPEQVRGMAVRELNMNLLSCPT
chain 2: PIPMAVVRRELSCESYPIELRCPGTDVIMIESANYGRTDDKICDSDPAQMENIRCYLPDAYKIMSQRCNNRTQCAVVAGPDVFPDPCPGTYKYLEVQYECVPYKVEQKVFLCPGLLKGVYQSEHLFESDHQSGAWCKDPLQASDKIYYMPWTPYRTDTLTEYSSKDDFIAGRPTTTYKLPHRVDGTGFVVYDGALFFNKERTRNIVKFDLRTRIKSGEAIIANANYHDTSPYRWGGKSDIDLAVDENGLWVIYATEQNNGKIVISQLNPYTLRIEGTWDTAYDKRSASNAFMICGILYVVKSVYEDDDNEATGNKIDYIYNTDQSKDSLVDVPFPNSYQYIAAVDYNPRDNLLYVWNNYHVVKYSLDFGPLD
B2: rat Unc5D ectodomain (Unc5D^ecto), biotinylated at a C-terminal Avitag (domain or fragment)
chain: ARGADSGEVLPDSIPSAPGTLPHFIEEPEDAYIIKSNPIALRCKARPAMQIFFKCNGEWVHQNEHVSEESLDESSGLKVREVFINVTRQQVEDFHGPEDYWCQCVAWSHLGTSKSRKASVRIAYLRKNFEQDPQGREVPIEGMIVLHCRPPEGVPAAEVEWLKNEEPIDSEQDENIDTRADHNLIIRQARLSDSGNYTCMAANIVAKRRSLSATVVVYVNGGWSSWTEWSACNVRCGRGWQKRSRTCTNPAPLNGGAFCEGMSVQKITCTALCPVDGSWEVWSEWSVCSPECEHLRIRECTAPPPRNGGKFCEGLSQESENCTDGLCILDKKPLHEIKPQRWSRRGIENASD
modifications: biotin on the C-terminal Avitag (enzymatic)
B3: mouse FLRT2 ectodomain (FLRT2^ecto), ITC construct (domain or fragment)
chain: CPSVCRCDRNFVYCNERSLTSVPLGIPEGVTVLYLHNNQINNAGFPAELHNVQSVHTVYLYGNQLDEFPMNLPKNVRVLHLQENNIQTISRAALAQLLKLEELHLDDNSISTVGVEDGAFREAISLKLLFLSKNHLSSVPVGLPVDLQELRVDENRIAVISDMAFQNLTSLERLIVDGNLLTNKGIAEGTFSHLTKLKEFSIVRNSLSHPPPDLPGTHLIRLYLQDNQINHIPLTAFANLRKLERLDISNNQLRMLTQGVFDHLSNLKQLTARNNPWFCDCSIKWVTEWLKYIPSSLNVRGFMCQGPEQVRGMAVRELNMNLLSCPTTTPGLPVFTPAPSTVSPTTQSPTLSVPSPSRGSVPPAPTPSKLPTIPDWDGRERVTPPISERIQLSIHFVNDTSIQVSWLSLFTVMAYKLTWVKMGHSLVGGIVQERIVSGEKQHLSLVNLEPRSTYRICLVPLDAFNYRTVEDTICSEATTHASYLNNGSNTASSHEQTTSHSMGSPF
B4: FLRT2^ecto+Lphn3^Olf (kept together in the ITC cell) (complex)
chain 1: B3 chain
chain 2: T1 chain

Assays:
[1] = target: B2; assay: SPR; apparent KD; FLRT2LRR mixed with Lphn3Lec-Olf
[2] = target: FLRT2^LRR+Lphn3^Lec–Olf DDD mutant (mouse, UniProt Q8BLU0 35-362; Q80TS3-3 92-463, D397N | D399T, artificial N-linked glycan at position 397); assay: SPR; apparent KD; FLRT2LRR mixed with Lphn3Lec-Olf DDD mutant
[3] = target: T2, Unc5D ectodomain (Unc5D^ecto), ITC construct (human (methods; the results say rat), UniProt Q6UXZ4 32-383); assay: ITC
T2 sequence (Q6UXZ4 32-383): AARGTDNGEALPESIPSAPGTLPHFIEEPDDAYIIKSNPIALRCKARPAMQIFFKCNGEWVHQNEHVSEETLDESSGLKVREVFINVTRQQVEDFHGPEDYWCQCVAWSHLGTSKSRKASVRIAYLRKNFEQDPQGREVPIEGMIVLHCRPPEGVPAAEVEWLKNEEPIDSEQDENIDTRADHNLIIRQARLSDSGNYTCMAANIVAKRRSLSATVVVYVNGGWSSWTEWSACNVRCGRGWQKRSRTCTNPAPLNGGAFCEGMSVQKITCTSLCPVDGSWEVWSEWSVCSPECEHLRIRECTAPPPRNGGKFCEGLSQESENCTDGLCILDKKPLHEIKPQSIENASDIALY

[4] = target: T1, Olf domain of mouse Latrophilin3 …; assay: ITC
[5] = target: T2, Unc5D ectodomain (Unc5D^ecto), ITC …; assay: ITC; FLRT2ecto premixed 1:1 with Lphn3Olf

Binder: B1
Kd [1]: ~9 nM

Binder: B2
Kd [2]: ~9 nM

Binder: B3
Kd [3]: 2300 nM | Kd [4]: 9.7 nM

Binder: B4
Kd [5]: 106 nM
